Biological target: recombinant CquiOBP1, odorant-binding protein from Culex pipiens quinquefasciatus (Culex pipiens quinquefasciatus)
Experiment: SEC; gel filtration of purified recombinant CquiOBP1 on Superdex-75 26/60, 150 mM NaCl, 20 mM Tris-HCl pH 8; monomer and dimer peaks isolated; the dimer slowly dissociates into monomer (1 hour at room temperature, overnight at 4°C)

recombinant CquiOBP1, odorant-binding protein from Culex pipiens quinquefasciatus (natural protein)
stoichiometry N: 2

Reference: paper PMC2516325
